# In PMC5099578, “A structural and functional study on the 2-C-methyl-D-erythritol-4-phosphate cytidyltransferase (IspD) from Bacillus subtilis” (Scientific Reports, 2016):
# Target: the molecule itself
# Experiment: crystal structure; apo form I, space group P2_(1)2_(1)2_(1), crystallization condition I, hanging drop at 18 °C; two molecules in the asymmetric unit; 1.80 Å
protein,measurement,value
"2-C-methyl-D-erythritol-4-phosphate cytidyltransferase (IspD) from Bacillus subtilis (enzyme, Bacillus subtilis 168, IspD of Bacillus subtilis 168 (DSM 23778); the IspD gene amplified from genomic DNA as a 699 bp product; 232 residues built in apo form I (residues numbered up to 232); 699 bp fits 232 codons and a stop codon, so probably the whole gene; Cloned BamHI/XhoI in pGEX-6P-1; GST removed by PreScission protease, so a few vector residues may be left at the N-terminus (surmised); also called BsIspD; …) MSYDVVIPAAGQGKRMKAGRNKLFIELKGDPVIIHTLRVFDSHRQCDKIILVINEQEREHFQQLLSDYPFQTSIELVAGGDERQHSVYKGLKAVKQEKIVLVHDGARPFIKHEQIDELIAEAEQTGAAILAVPVKDTIKRVQDLQVSETIERSSLWAVQTPQAFRLSLLMKAHAEAERKGFLGTDDASLVEQMEGGSVRVVEGSYTNIKLTTPDDLTSAEAIMESESGNKHV",stoichiometry N,2
